Measured values reported in US6489103.

System: M.HhaI DNA methyltransferase (Haemophilus parahaemolyticus)
Test: cleavage_in_vitro
Conditions: up to 20% of compartmentalised genes protected from HhaI after 60-180 min; HaeIII and EcoRI sites not protected; SAM 80 uM, 25-30 C

For DIG-M.HhaI-Biotin 1167 bp fragment, the activity was 20%.
